Paper PMC2115640

Target: TX-100 cytoskeleton
Assay: detergent extraction

B1: 135-kD glycoprotein (gp135) (natural protein)
chain: HDGTIIAATSPTSGQPSTELPGGKGLITTAKTIQNTDLAITGEKVMSATVSKGPLPGSSNSVSMTLAPTQKNTVIAPDQDEKVSTNPTIATSDSKGIPDLNKSILPSATNSMKPDTPVTQTAGPGAQGNPGTTVSHMTSENTEQTTSQPPPQVKPSSITPALTSIITPTSPRQPSANSTTLKPPESSSESPDKSHTASSSLGTKVVPSSSLYGTSPTRTSSVTFWGGPQSSSGTPPVPAPTPRPAATSSSTPGISSVPGTTSLPSETESLESPSSESPSQPPKLRPTGPPSSGSSGPAASLPDEGPRSSSTQRAATAPRAPSVPSPTSAQGDDRIKCESPGRLTDKMLLLNLTRSGLCAGNNSDDKLITLLCRAAKATFNPAQDQCHIRLVPIQDTQAVAIKEITVQTNLLPRDVYELLKDKWDELKEVGVSNMKLGDQGPPEETEDRFSMPLIITIVCMASFLLLVAALYGCCHQRLSQRKDQQRLTEELQTVENGYHDNPTLEVMETSSEMQEKKVVNLNGELGDSWIVPLDNLAKDDLDEEEDTHL
gp135 remaining (%) with the TX-100 cytoskeleton, 48-h cultures: 66.2%
gp135 remaining (%) with the TX-100 cytoskeleton, 72-h cultures: 53.4%
